Assay results reported in the RNAGym collection of RNA variant scans (doi:10.1021/acssynbio.7b00057).

B1: Pistol ribozyme (parent)
chain: GGGUCGUUGUUCCAUAAUCGCGUGGAUAUGGCACGCAAGUUUCUACCGGGCACCGUAAAUGUCCGACUGGAGCCGUUCGGGCGGCUAUAAACAGACCUCAGGCCCGAAGCGUGGCGGCACCUGCCGCCGGUGGUAAAAAAGAUCGGAAGAGCACACGUCU

Variants of: B1
Assay: aptazyme ON/OFF ratio, guanine; higher = stronger switching; co-transcriptional cleavage with and without guanine

In order of rising “aptazyme ON/OFF ratio” value:
1. U7A U8A G9A U10G C12U C13U  0.929
2. U7A U8A G9A U10G U11A  1.02
3. U7A U8A G9A U10G U11A C12U  1.03
4. U7A U8A G9A U10G U11C  1.04
5. U7A U8A G9A U10C U11C C12U  1.04
6. U7A U8A G9A U10G C12U C13A  1.05
7. U7A U8A G9A U10C C12G  1.05
8. U7A U8A G9A U10C U11C C12G  1.05
9. U7A U8A G9A U10C U11G C12U C13G  1.05
10. U7A U8A G9A U10G C12G C13A  1.06
11. U7A U8A G9A U11C C12U  1.06
12. U7A U8A G9A U10C U11A C12A C13G  1.06
13. U7A U8A G9A U11C C13A  1.06
14. U7A U8A G9A U10G U11G  1.07
15. U7A U8A G9A U10G U11C C12U C13A  1.07
16. U7A U8A G9A U11A C12A C13U  1.07
17. U7A U8A G9A U10C U11G C12G C13U  1.08
18. U7A U8A G9A U10C U11G C13A  1.08
19. U7A U8A G9A U11G C12A C13A  1.08
20. U7A G9U U11G C12U C13U  1.08
21. U7A U8A G9A U10G U11A C12G C13A  1.08
22. U7A G9U U11A C12G C13A  1.08
23. U7A U8A G9A U10C U11G C13U  1.09
24. U7A U8A G9A U11G C12A C13U  1.09
25. U7A U8A G9A C12G C13A  1.09
26. U7A U8A G9A U10A C12A C13U  1.09
27. U7A U8A G9A U10C U11G C12A C13G  1.09
28. U7A U8A G9A U10C U11G C12A C13A  1.09
29. U7A U8A G9A U10C U11A C13G  1.09
30. U7A U8A G9A U10C U11A C13U  1.09
31. U7A U8A G9A U10G U11A C12U C13U  1.1
32. U7A G9U U11C C12U C13G  1.1
33. U7A U8A G9A U11C C12G  1.1
34. U7A U8A G9A U10C C12A  1.1
35. U7A U8A G9A U10A U11C C12G C13U  1.1
36. U7A U8A G9A U11C C13U  1.1
37. U7A U8A G9A U10C U11G C12G C13A  1.11
38. U7A U8A G9A U10G C12G C13G  1.11
39. U7A U8A G9A C12U C13A  1.11
40. U7A U8A G9A U11G C12A C13G  1.11
41. U7A U8A G9A U11G C12A  1.11
42. U7A U8A G9A U10A C12A C13A  1.11
43. U7A U8A G9A U11A C13G  1.11
44. U7A U8A G9A U10A U11C C12G C13A  1.11
45. U7A U8A G9A C13A  1.11
46. U7A U8A G9A C13G  1.11
47. U7A U8A G9A U10C U11A C12A C13A  1.11
48. U7A U8A G9A U10C U11A C13A  1.11
49. U7A U8A C12A C13G  1.12
50. U7A U8A G9A C12U C13G  1.12
51. U7A U8A G9A C12G C13G  1.12
52. U7A U8A G9A U10C U11G C12A C13U  1.12
53. U7A G9U U11A C12G C13G  1.12
54. U7A U8A G9A U10G C12A C13G  1.12
55. U7A U8A G9A U11C C13G  1.12
56. U7A U8A G9A U10G U11A C12U C13A  1.13
57. U7A U8A G9A U10A U11A C12G C13U  1.13
58. U7A U8A G9A U10G U11A C12G  1.13
59. U7A U8A G9A U10C U11G C12U C13U  1.13
60. U7A U8A G9A U10C U11A C12A C13U  1.13
61. U7A U8A G9A U10G U11G C12U C13U  1.14
62. U7A U8A G9A U10A U11A C12U C13U  1.14
63. U7A G9U U11G C12G C13U  1.14
64. U7A U8A G9A C12G C13U  1.14
65. U7A U8A G9A U10A U11A C12G C13A  1.14
66. U7A U8A G9A U10C U11G C12U C13A  1.14
67. U7A U8A G9A U10C U11G C12G C13G  1.15
68. U7A U8A G9C C12U C13A  1.15
69. U7A G9U U11C  1.15
70. U7A U8A G9A U10G U11A C12G C13G  1.15
71. U7A U8A G9A U10G U11A C12A  1.15
72. U7A U8A G9A U10G U11A C12U C13G  1.16
73. U7A G9U U11C C12A C13G  1.16
74. U7A U8A G9A U11G C12G C13A  1.16
75. U7A U8A G9A U11G C12U C13A  1.16
76. U7A G9U U11C C12U  1.16
77. U7A U8A G9A U10A U11G C12A C13A  1.16
78. U7A U8A G9A U11C C12A  1.16
79. U7A U8A G9C C12G C13G  1.17
80. U7A U8A G9A C12U C13U  1.17
81. U7A U8A G9A U10A U11A C12U C13A  1.17
82. U7A U8A G9A U10G U11C C12G C13G  1.17
83. U7A U8A G9A U10G C12U C13G  1.17
84. U7A U8A G9A U10A U11A C12U  1.17
85. U7A U8A G9A U11A C12A C13A  1.17
86. U7A U8A G9A U11G C12U C13G  1.18
87. U7A U8A G9C C12G C13U  1.18
88. U7A G9U U11C C12G  1.18
89. U7A U8A G9A U10C U11C C12A  1.18
90. U7A U8A G9A U10G U11G C12A  1.18
91. U7A U8A G9C C12G C13A  1.19
92. U7A U8A G9A U11A C13U  1.19
93. U7A G9U U11A C12A C13U  1.19
94. U7A U8A G9A U10G U11C C12U C13G  1.19
95. U7A G9U U11C C12U C13A  1.2
96. U7A U8A G9A U10G U11G C12A C13A  1.2
97. U7A U8A G9A U11A C13A  1.2
98. U7A U8A G9A U10G C12A C13U  1.2
99. U7A U8A G9A U10G C12A C13A  1.21
100. U7A U8A G9A U10A U11A C12A C13G  1.21
101. U7A U8A G9A U11A C12A C13G  1.21
102. U7A U8A C12A C13A  1.22
103. U7A U8A G9C  1.22
104. U7A U8A G9A C13U  1.22
105. U7A U8A G9C C12U C13G  1.23
106. U7A U8A G9A U10A U11A C12U C13G  1.23
107. U7A U8A G9A U10C C12U  1.23
108. U7A U8A G9A U10A C12A C13G  1.23
109. U7A U8A G9A U10G U11C C12U C13U  1.23
110. U7A G9U U11C C12A C13U  1.24
111. U7A G9U U11C C12A C13A  1.24
112. U7A U8A G9A U11A C12G  1.24
113. U7A U8A G9A U10C U11G C13G  1.24
114. U7A U8A G9A U10G U11C C12G C13A  1.24
115. U7A U8A G9A U10A U11G C12A C13U  1.24
116. U7A U8A G9A U10A U11G C12A C13G  1.24
117. U7A U8A C12U C13G  1.24
118. U7A U8A G9A U10G U11G C12U C13A  1.25
119. U7A G9U U11A C12G C13U  1.25
120. U7A U8A G9A U10A U11G C12G C13A  1.25
121. U7A U8A G9A U11G C12U C13U  1.26
122. U7A U8A G9A U11A C12A  1.26
123. U7A G9U U11G C12G C13A  1.26
124. U7A G9U U11C C12U C13U  1.26
125. U7A U8A G9A U10A U11A C12A  1.26
126. U7A U8A G9C U10A  1.27
127. U7A U8A G9A U10A U11A C12G  1.27
128. U7A U8A G9A U10A U11A C12G C13G  1.28
129. U7A U8A G9A U10G U11G C12A C13G  1.29
130. U7A U8A G9A U10G U11G C12A C13U  1.29
131. U7A U8A C12U C13A  1.29
132. U7A U8A G9A U11G C12G  1.3
133. U7A G9U U11G C12U C13G  1.3
134. U7A U8A G9A U10A U11C C12G C13G  1.3
135. U7A U8A G9A U10G U11G C12U C13G  1.31
136. U7A U8A G9A U10G C12G C13U  1.31
137. U7A U8A G9A U10G U11C C12G C13U  1.31
138. U7A U8A G9A U10G  1.31
139. U7A U8A G9A U11G C12G C13U  1.32
140. U7A G9U U11G C12G C13G  1.32
141. U7A U8A G9A U10A U11G C12G C13G  1.32
142. U7A U8A G9A C12U  1.32
143. U7A U8A G9A U11G C12G C13G  1.33
144. U7A U8A G9A U10G U11A C12G C13U  1.33
145. U7A U8A G9A U10G U11G C12U  1.33
146. U7A G9U U11C C12A  1.34
147. U7A G9U U11A C12U  1.34
148. U7A U8A G9A U10A U11A C12A C13U  1.34
149. U7A U8A G9A U11A C12U  1.35
150. U7A G9U U11G C12U C13A  1.35
151. U7A G9U U11A C12G  1.35
152. U7A U8A G9A U10A U11A C12A C13A  1.35
153. U7A G9U U11G  1.36
154. U7A U8A C12U C13U  1.38
155. U7A U8A G9A C12G  1.4
156. U7A U8A G9C C12U C13U  1.42
157. U7A U8A G9A U10G U11G C12G C13U  1.44
158. U7A U8A G9A U10A  1.46
159. U7A U8A G9A C12A  1.46
160. U7A U8A C12A C13U  1.5
161. U7A U8A G9A U10G U11G C12G C13A  1.5
162. U7A U8A G9A U10G U11G C12G  1.52
163. U7A U8A G9A U10C  1.52
164. U7A U8A G9A U10G U11G C12G C13G  1.55
165. U7A U8A G9A U10A U11G C12G C13U  1.59
166. U7A U8A G9A U11G C12U  1.69
167. U7A U8A G9A  1.87
